Where a chain is given by its changes, count along the chain named. Names and notes keep the numbering of the source.
T1: Drosha (residues 353-1372) (human, UniProt Q9NRR4 353-1372)
T1 construct: Drosha (RNase III), human, residues 353-1372 (CED, two RIIID domains, dsRBD); also called the Drosha chain of MP^Heme, MP^Apo, MP^C352S, MP^ΔHBR and MP^CTT
T1 sequence (looked up): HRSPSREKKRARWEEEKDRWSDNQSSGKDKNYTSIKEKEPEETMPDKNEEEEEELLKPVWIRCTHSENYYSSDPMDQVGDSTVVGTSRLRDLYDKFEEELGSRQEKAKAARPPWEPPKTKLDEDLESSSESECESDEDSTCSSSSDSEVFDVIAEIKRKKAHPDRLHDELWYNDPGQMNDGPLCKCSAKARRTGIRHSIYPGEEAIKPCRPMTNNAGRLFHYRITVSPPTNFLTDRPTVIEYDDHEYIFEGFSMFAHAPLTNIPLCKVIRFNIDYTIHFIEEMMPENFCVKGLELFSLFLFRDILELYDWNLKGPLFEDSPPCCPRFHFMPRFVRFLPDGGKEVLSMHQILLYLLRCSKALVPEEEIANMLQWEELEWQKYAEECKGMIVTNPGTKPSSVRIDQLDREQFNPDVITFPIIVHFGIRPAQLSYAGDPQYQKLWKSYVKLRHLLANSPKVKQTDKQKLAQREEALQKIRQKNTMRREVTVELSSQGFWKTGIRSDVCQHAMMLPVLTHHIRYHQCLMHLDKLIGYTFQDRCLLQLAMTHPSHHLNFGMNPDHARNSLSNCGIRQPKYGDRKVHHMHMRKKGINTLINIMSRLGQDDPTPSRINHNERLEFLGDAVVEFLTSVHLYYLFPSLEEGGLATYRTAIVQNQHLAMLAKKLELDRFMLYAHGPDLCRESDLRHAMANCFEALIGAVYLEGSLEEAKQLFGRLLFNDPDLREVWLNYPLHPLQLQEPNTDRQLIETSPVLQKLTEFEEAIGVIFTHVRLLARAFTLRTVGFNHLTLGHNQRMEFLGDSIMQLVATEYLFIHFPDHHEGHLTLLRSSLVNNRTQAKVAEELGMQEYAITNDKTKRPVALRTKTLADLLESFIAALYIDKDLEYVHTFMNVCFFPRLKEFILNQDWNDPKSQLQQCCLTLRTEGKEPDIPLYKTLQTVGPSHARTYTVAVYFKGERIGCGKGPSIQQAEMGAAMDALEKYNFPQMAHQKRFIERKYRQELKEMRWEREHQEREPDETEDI

B1: DGCR8^ΔHBR (residues 489-751), co-expressed with Drosha (domain or fragment, human, UniProt Q8WYQ5 489-751, looked up)
chain: LITLSVQDAPTKKEFVINPNGKSEVCILHEYMQRVLKVRPVYNFFECENPSEPFGASVTIDGVTYGSGTASSKKLAKNKAARATLEILIPDFVKQTSEEKPKDSEELEYFNHISIEDSRVYELTSKAGLLSPYQILHECLKRNHGMGDTSIKFEVVPGKNQKSEYVMACGKHTVRGWCKNKRVGKQLASQKILQLLHPHVKNWGSLLRMYGRESSKMVKQETSDKSVIELQQYAKKNKPNLHILSKLQEEMKRLAEEREETRK
notes: DGCR8, human, residues 489-751 (tandem dsRBDs and C-terminal tail, no HBR); One copy per Drosha in MP^ΔHBR; also called DGCR8 lacking the HBR; the DGCR8 chain of MP^ΔHBR
B2: DGCR8 (residues 223-751), isolated, wild type (domain or fragment, human, UniProt Q8WYQ5 223-751, looked up)
chain: AIVQRDRVDEEALNFPYEDDFDNDVDALLEEGLCAPKKRRTEEKYGGDSDHPSDGETSVQPMMTKIKTVLKSRGRPPTEPLPDGWIMTFHNSGVPVYLHRESRVVTWSRPYFLGTGSIRKHDPPLSSIPCLHYKKMKDNEEREQSSDLTPSGDVSPVKPLSRSAELEFPLDEPDSMGADPGPPDEKDPLGAEAAPGALGQVKAKVEVCKDESVDLEEFRSYLEKRFDFEQVTVKKFRTWAERRQFNREMKRKQAESERPILPANQKLITLSVQDAPTKKEFVINPNGKSEVCILHEYMQRVLKVRPVYNFFECENPSEPFGASVTIDGVTYGSGTASSKKLAKNKAARATLEILIPDFVKQTSEEKPKDSEELEYFNHISIEDSRVYELTSKAGLLSPYQILHECLKRNHGMGDTSIKFEVVPGKNQKSEYVMACGKHTVRGWCKNKRVGKQLASQKILQLLHPHVKNWGSLLRMYGRESSKMVKQETSDKSVIELQQYAKKNKPNLHILSKLQEEMKRLAEEREETRK
notes: DGCR8, human, residues 223-751 (HBR, two dsRBDs, C-terminal tail); also called DGCR8^Heme; DGCR8^Apo; source: E. coli BL21 (DE3) Rosetta, pET21, purified (Ni-NTA, cation exchange, size exclusion); 5 uM hemin Cl in the media for heme-saturated protein
B3: DGCR8 (residues 223-751), wild type, co-expressed with Drosha (domain or fragment, human, UniProt Q8WYQ5 223-751, looked up)
chain: B2 chain
notes: DGCR8, human, residues 223-751; Two copies per Drosha in the complex (heterotrimer); Heme-saturated in MP^Heme, heme-deficient in MP^Apo; also called DGCR8^Heme; DGCR8^Apo; source: MP^Apo separated from MP^Heme by repeated ion exchange
B4: DGCR8 (residues 223-751) C352S, isolated (domain or fragment, human, UniProt Q8WYQ5 223-751, looked up)
chain: B2 chain with C130S
notes: also called DGCR8^C352S; source: E. coli BL21 (DE3) Rosetta, pET21, purified (Ni-NTA, cation exchange, size exclusion)
B5: DGCR8 (residues 223-751) C352S, co-expressed with Drosha (domain or fragment, human, UniProt Q8WYQ5 223-751, looked up)
chain: B2 chain with C130S
notes: also called DGCR8^C352S; the DGCR8 chain of MP^C352S

Legend:
[1] = target: T1, Drosha (residues 353-1372); test: SEC-MALS; purified co-expressed Drosha/DGCR8 complex; Superdex 200 Increase 10/300; 20 mM Tris pH 8.0, 750 mM NaCl, 1 mM TCEP, 10% glycerol; conditions: both partners purified
[2] = target: the molecule itself; test: AUC; sedimentation velocity of isolated DGCR8; 0.1-1 mg/mL; 20 mM Tris pH 8.0, 500 mM NaCl, 1 mM TCEP; 142,000 x g, about 16 h; wild-type sample heme-saturated
[3] = target: the molecule itself; test: SEC-MALS; isolated DGCR8; Superdex 200 Increase 10/300; 20 mM Tris pH 8.0, 750 mM NaCl, 1 mM TCEP, 10% glycerol; wild-type sample heme-deficient (Apo); heme-saturated samples inconclusive and not reported
[4] = target: the molecule itself; test: AUC; sedimentation velocity of purified co-expressed Drosha/DGCR8 complex; 0.1-1 mg/mL; 20 mM Tris pH 8.0, 500 mM NaCl, 1 mM TCEP; 72,400 x g, about 16 h
[5] = target: the molecule itself; test: SEC-MALS; purified co-expressed Drosha/DGCR8 complex; Superdex 200 Increase 10/300; 20 mM Tris pH 8.0, 750 mM NaCl, 1 mM TCEP, 10% glycerol

| Binder | stoichiometry N [2] | stoichiometry N [3] | stoichiometry N [4] | further results |
| --- | --- | --- | --- | --- |
| B1 |  |  |  | stoichiometry N [1]: 1 |
| B2 | 2 | 2 |  |  |
| B3 |  |  | 2 |  |
| B4 | 2 | 2 |  |  |
| B5 |  |  | 2 | stoichiometry N [5]: 2 |
